Experimental data: FireProtDB (doi:10.1016/j.jmb.2010.09.022)

B1: Profilin, Q58NA1 (parent)
chain: MSDWDPVVKEWLVDTGYCCAGGIANAEDGVVFAAAADDDDGWSKLYKDDHEEDTIGEDGNACGKVSINEASTIKAAVDDGSAPNGVWIGGQKYKVVRPEKGFEYNDCTFDITMCARSKGGAHLIKTPNGSIVIALYDEEKEQDKGNSRTSALAFAEYLHQSGY

Variants of: B1
Conditions: Toxoplasma gondii; pH 7.5; Thermal; CD; HEPES 10mM; KCl 100mM; reversible: yes; structure 3NEC; whole UniProt chain shown

Row | Variant | Tm | change of melting temperature, mutant - wild type (higher = more stable)
1 | K94Q V95F R97N P98I T112A M113T | 62.2 °C | 9.1 °C
2 | D38Q D39G | 51.3 °C | -1.8 °C
